The source of these data is patent EP0904107B1.

Test [1] concerns the target FcRn of the neonatal mouse intestine (mouse) (UniProt Q61559). As to the kind of experiment: cell-based or functional assay.
Test [2] addresses recombinant soluble mouse FcRn (mouse) (UniProt Q61559). As to the kind of experiment: inhibition of 125I-sFcRn binding to murine IgG1-Sepharose; molar ratio of inhibitor/FcRn 1/1000.
Test [3] shares this target. In words: inhibition of 125I-sFcRn binding to murine IgG1-Sepharose; molar ratio of inhibitor/FcRn 1/500.
Test [4] shares this target. As to the kind of experiment: SPR (BIAcore 2000), FcRn immobilised on CM5 chip, purified Fc-hinge fragment in flow, pH 6.0.

As to “Fc-hybrid: heterodimer of WT Fc-hinge and HQ-310/HN-433 mutant”, the Inhibition of transmission (%) in test [1] was determined as 21.5%.
On the same count and under the same terms, next, HQ-310 mutant Fc-hinge fragment: 8.9%; “bovine serum albumin (from UniProt P02769 25-607)”: 8.9%.
What is called % inhibition is the change of the read-out against control, counted positive when it falls. Consider I-253 mutant Fc-hinge fragment, for which the figures for the % inhibition in test [2] and in test [3] were 6.5% and 2.3%, respectively. This substance gave an Inhibition of transmission (%) in test [1] of 20.2%.
In general, Kd refers to the free concentration of one partner at which half of the binding sites on the other are occupied at equilibrium, for simple one-to-one binding. The koff is the rate constant with which the complex falls apart. The kon is the rate constant with which the complex forms. Consider “wild type (WT) Fc-hinge fragment derived from murine IgG1”, for which, in test [4], the Kd was 7.44 nM, the koff is 0.00461 s⁻¹ and the kon was determined as 620000 M⁻¹ s⁻¹. Besides, in test [2], the % inhibition came out at 34.1%. The same substance displayed an Inhibition of transmission (%) in test [1] of 55.3%. Besides, the % inhibition in test [3] came to 18.4%.
In test [1], “Fc fragment produced by papain digestion of murine IgG1 (from UniProt P01868 98-324)” showed an Inhibition of transmission (%) of 62.5%.
For the substance HN-433 mutant Fc-hinge fragment, the Inhibition of transmission (%) in test [1] was found to be 44.4%.
Take “murine IgG1 (complete glycosylated IgG1 molecule) (antibody)”: the % inhibition in test [2] was 45.6%; in test [3], 24.7%. The same substance yielded an Inhibition of transmission (%) in test [1] of 51.4%.
HQ-310/HN-433 mutant Fc-hinge fragment: the % inhibition in test [2] came out at 4%; in test [3] it was 0.2%. Further, the Inhibition of transmission (%) in test [1] stood at 5.4%.
